Tests used:
[1] = target: BTLA overexpressed on 293T cells (human) (UniProt Q7Z6A9); assay: FACS, 293T cells overexpressing BTLA; secondary antibody alone (background control)
[2] = target: BTLA overexpressed on 293T cells (human) (UniProt Q7Z6A9); assay: FACS, 293T cells overexpressing BTLA

BTLA overexpressed on 293T cells (human), sequence (Q7Z6A9 31-289 limits assumed): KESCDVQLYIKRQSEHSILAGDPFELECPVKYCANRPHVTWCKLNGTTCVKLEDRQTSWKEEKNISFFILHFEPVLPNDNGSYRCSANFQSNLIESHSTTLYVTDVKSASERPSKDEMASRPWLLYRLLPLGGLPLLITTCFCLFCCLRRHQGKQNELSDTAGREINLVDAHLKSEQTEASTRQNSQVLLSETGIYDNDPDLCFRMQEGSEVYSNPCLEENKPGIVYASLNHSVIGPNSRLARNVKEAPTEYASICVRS

% Gate [1] [%]	MR [1]	% Gate [2] [%]	MR [2]	Substance
10.1	16.6	–	–	2′Ab only (antibody)
–	–	91.3	2850	BTLA (MIH26) (antibody)
–	–	5.08	11.7	Isotype (antibody)
